# Results: patent publication US20160185837A1 (Medimmune Limited, priority 2013, published 2016)
# Where two headings read alike, the source gives them in different places.
# T1: mouse GIP receptor (mGIPr) (Mus musculus, UniProt Q0P543)
# T1 construct: expressed in transfected cells; host or cells: HEK293s or CHO cells
# T1 sequence (Q0P543 19-460): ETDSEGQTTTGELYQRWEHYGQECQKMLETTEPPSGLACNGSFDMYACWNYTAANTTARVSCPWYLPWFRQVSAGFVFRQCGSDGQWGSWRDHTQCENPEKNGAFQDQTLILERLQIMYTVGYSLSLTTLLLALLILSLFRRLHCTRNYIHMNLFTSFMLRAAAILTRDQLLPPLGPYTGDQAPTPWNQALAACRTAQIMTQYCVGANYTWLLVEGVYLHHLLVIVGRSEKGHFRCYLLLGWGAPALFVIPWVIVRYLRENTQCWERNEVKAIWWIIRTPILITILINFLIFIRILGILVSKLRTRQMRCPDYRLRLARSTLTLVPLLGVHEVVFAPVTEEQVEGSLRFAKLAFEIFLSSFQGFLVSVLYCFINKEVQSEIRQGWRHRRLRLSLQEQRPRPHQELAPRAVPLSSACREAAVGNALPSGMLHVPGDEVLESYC
# T2: rat GLP-1 receptor (rGLP-1r) (Rattus norvegicus, UniProt P32301)
# T2 construct: expressed in transfected cells; host or cells: HEK293s or CHO cells
# T2 sequence (P32301 22-463): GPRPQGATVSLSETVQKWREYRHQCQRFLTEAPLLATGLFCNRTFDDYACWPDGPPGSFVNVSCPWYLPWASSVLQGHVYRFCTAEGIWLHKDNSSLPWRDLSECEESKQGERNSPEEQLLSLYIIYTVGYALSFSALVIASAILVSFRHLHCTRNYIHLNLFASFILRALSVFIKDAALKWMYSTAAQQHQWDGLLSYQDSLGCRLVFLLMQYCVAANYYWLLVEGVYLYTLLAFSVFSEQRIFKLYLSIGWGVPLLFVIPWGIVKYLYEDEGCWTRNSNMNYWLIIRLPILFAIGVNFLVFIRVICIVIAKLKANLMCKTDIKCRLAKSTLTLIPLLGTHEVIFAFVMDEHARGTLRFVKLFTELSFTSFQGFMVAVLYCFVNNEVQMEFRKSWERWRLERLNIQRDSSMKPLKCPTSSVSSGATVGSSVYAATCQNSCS
# T3: rat GIP receptor (rGIPr) (Rattus norvegicus, UniProt P43219)
# T3 construct: expressed in transfected cells; host or cells: HEK293s or CHO cells
# T3 sequence (P43219 19-455): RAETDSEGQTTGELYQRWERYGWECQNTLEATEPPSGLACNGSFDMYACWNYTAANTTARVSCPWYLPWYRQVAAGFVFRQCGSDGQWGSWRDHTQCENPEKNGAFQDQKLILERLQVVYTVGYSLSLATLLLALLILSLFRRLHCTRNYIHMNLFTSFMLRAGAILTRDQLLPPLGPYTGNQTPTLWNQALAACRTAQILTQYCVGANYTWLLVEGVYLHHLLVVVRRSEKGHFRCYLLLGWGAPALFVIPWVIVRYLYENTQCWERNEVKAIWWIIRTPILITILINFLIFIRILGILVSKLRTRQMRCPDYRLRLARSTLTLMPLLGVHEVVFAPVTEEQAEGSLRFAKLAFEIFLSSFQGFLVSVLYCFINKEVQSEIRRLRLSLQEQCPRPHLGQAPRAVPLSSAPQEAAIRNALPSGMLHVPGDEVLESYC
# T4: mouse GLP-1 receptor (mGLP-1r) (Mus musculus, UniProt O35659)
# T4 construct: expressed in transfected cells; host or cells: HEK293s or CHO cells
# T4 sequence (O35659 22-463): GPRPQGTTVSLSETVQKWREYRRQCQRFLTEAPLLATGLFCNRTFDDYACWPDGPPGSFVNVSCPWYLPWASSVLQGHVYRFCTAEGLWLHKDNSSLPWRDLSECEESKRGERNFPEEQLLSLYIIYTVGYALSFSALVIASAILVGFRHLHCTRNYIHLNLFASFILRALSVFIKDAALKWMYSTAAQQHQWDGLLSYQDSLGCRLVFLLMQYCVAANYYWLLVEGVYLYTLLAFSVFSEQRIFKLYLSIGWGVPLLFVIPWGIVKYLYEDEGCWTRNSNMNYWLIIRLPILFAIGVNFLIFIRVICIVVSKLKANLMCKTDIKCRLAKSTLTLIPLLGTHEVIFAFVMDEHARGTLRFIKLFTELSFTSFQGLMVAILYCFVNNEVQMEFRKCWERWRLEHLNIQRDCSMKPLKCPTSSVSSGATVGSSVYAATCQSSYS
# T5: human GIP receptor (hGIPr) (Homo sapiens, UniProt P48546)
# T5 construct: expressed in transfected cells
# T5 sequence (P48546 22-466): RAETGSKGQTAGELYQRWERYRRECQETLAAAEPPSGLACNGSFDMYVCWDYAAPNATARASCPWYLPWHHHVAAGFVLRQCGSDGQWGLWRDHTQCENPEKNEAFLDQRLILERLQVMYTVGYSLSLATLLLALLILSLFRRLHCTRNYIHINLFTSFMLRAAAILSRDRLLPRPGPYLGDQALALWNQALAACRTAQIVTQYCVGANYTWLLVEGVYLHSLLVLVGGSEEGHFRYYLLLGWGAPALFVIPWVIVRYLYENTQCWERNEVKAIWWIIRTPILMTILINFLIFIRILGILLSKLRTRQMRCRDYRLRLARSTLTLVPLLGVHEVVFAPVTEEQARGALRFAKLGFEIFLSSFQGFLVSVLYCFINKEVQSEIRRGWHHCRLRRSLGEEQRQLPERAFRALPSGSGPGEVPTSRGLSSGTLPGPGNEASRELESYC
# B1: IP376 (protein)
# chain: YSEGTFTSLFSKLLERQAIDEFIAWLLKGGAAAGGSGSTASSGSGSATGGGGAATHTCPPC
# B2: IP401 (protein)
# chain: YSEGTHTSDLSKLLERQAIDEFIAWLLKGGAAAGGSGSTASSGSGSATGGGGAATHTCPPC
# B3: IP321 (protein)
# chain: YSEGTFISDYSIAMDKIHQQDFVNWLLAGGAAAGGSGSTASSGSGSATGGGGAATHTCPPC
# B4: IP351 (protein)
# chain: YSEGTFISDYSIAMDKIHQQDFVNWLLAQKPSSGAPPPSGGGGSGGGGSGGGGSGGGGSACPPC
# B5: IP246: Fc fusion, IgG1-TM, SEQ ID NO:116; agonist peptide YSEGTFTSDYSKLLEGQAAKLFIEWLVKGP (protein)
# chain: YSEGTFTSDYSKLLEGQAAKLFIEWLVKGPAAAGGSGSTASSGSGSATGGGGAATHTCPPCPAPEF
# modifications: also: Fc fusion, IgG1-TM
# notes: agonist peptide YSEGTFTSDYSKLLEGQAAKLFIEWLVKGP
# B6: IP247: Fc fusion, IgG1-TM, SEQ ID NO:117; agonist peptide YSEGTFTSDYSKLLEKIHQQLFIEWLVKGP (protein)
# chain: YSEGTFTSDYSKLLEKIHQQLFIEWLVKGPAAAGGSGSTASSGSGSATGGGGAATHTCPPCPAPEF
# modifications: also: Fc fusion, IgG1-TM
# notes: agonist peptide YSEGTFTSDYSKLLEKIHQQLFIEWLVKGP
# What was measured:
# Format in all cases: cell-based
# [1] = biological target: T6, human glucagon receptor (GCGr) (Homo sapiens, UniProt P47871); experiment: BSA-cAMP assay, cells expressing human glucagon receptor
# T6 construct: expressed in transfected cells; host or cells: HEK293s or CHO cells
# Description: (§1) One basic cAMP assays was performed, differing in the medium used for the assay, the “BSA-cAMP assay”:
# (§2) BSA-based assay medium: 0.1% bovine serum albumin (BSA) in
# (§3) In certain aspects, the assay can also be carried out in medium supplemented with serum albumin that corresponds to the receptor being tested, e.g., human serum albumin for testing cAMP activity at hGIPr or hGLP-1r, rat serum albumin for testing cAMP activity at rGIPr or rGLP-1r, and so on. […] All sample dilutions were made in duplicate.
# (§4) A frozen cryo-vial of cells expressing the receptor of interest was thawed rapidly in a water-bath, transferred to pre-warmed assay media and spun at 240×g for 5 minutes. Cells were re-suspended in assay buffer at an optimized concentration (e.g., hGLP-1r and hGIPr cells at 0.5×10^5 cells/ml).
# (§5) To this, 5 μL cell suspension was added and the plates incubated at room temperature for 30 minutes.
# (§6) cAMP levels were measured using a commercially available cAMP dynamic 2 HTRF kit (Cisbio, Cat #62AM4PEJ), following the two step protocol as per manufacturer's recommendations. In brief; anti-cAMP cryptate (donor fluorophore) and cAMP-d2 (acceptor fluorophore) were made up separately by diluting each 1/20 in conjugate & lysis buffer provided in the kit. 5 μL anti-cAMP cryptate was added to all wells of the assay plate, and 5 μL cAMP-d2 added to all wells except non-specific binding (NSB) wells, to which conjugate and lysis buffer was added. […] Data was transformed to % Delta F as described in manufacturer's guidelines and then transformed to percent activation of maximal native agonist response and analysed by 4-parameter logistic fit to determine EC50 values.
# (§7) We used unconstrained 4 parameter logistic fit of data, curve mid-point to determine EC50. This was tested on two occasions, not two batches.
# [2] = biological target: T1, mouse GIP receptor (mGIPr); experiment: BSA-cAMP assay, cells expressing mouse GIP receptor; details: BSA-cAMP assay
# Description: as §1, §2, §3, §4, §5, §6, §7
# (§8) In order to be able to carry out in vivo studies in rodents, IP088 was tested for potency against the mouse receptors mGIPr and mGLP-1r as well as the rat receptors rGIPr and rGLP-1r, using cells expressing the respective receptors in the cAMP assay described above.
# [3] = biological target: T2, rat GLP-1 receptor (rGLP-1r); experiment: BSA-cAMP assay, cells expressing rat GLP-1 receptor; details: BSA-cAMP assay
# Description: as §1, §2, §3, §4, §5, §6, §7, §8
# [4] = biological target: T3, rat GIP receptor (rGIPr); experiment: BSA-cAMP assay, cells expressing rat GIP receptor; details: BSA-cAMP assay
# Description: as §1, §2, §3, §4, §5, §6, §7, §8
# [5] = biological target: T7, human GLP-1 receptor (hGLP-1r) (Homo sapiens, UniProt P43220); experiment: BSA-cAMP assay, cells expressing human GLP-1 receptor; details: BSA-cAMP assay
# T7 construct: expressed in transfected cells
# How it was run: (§9)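 EC50 came from an unconstrained 4-parameter logistic fit of HTRF cAMP data expressed as percent of maximal native agonist activation, tested on two occasions. Thawed receptor-expressing cells (hGLP-1r, hGIPr at 0.5×10^5 cells/ml) treated 30 min at room temperature in 0.1% BSA-containing medium; two distinct hGIPr lines.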
# [6] = biological target: T4, mouse GLP-1 receptor (mGLP-1r); experiment: BSA-cAMP assay, cells expressing mouse GLP-1 receptor; details: BSA-cAMP assay
# Description: as §1, §2, §3, §4, §5, §6, §7, §8
# [7] = biological target: T5, human GIP receptor (hGIPr); experiment: BSA-cAMP assay, cells expressing human GIP receptor; details: BSA-cAMP assay
# How it was run: as §9
# [8] = Batch 1, read-out: hGCGr cAMP activity EC50
# [9] = Batch 1, read-out: mGIPr cAMP activity EC50
# [10] = Batch 1, read-out: rGLP1r cAMP activity EC50
# [11] = Batch 1, read-out: rGIPr cAMP activity EC50
# [12] = Batch 1, read-out: hGLP1r cAMP activity EC50
# [13] = Batch 1, read-out: mGLP1r cAMP activity EC50
# [14] = Batch 1, read-out: hGIPr cAMP activity EC50
# [15] = batch 1 unless a batch is given, read-out: cAMP activity hGCGr (EC50)
# [16] = read-out: cAMP activity mGIPr (EC50)
# [17] = read-out: cAMP activity rGLP1r (EC50)
# [18] = read-out: cAMP activity rGIPr (EC50)
# [19] = batch 1 unless a batch is given, read-out: cAMP activity hGLP1r (EC50)
# [20] = read-out: cAMP activity mGLP1r (EC50)
# [21] = batch 1 unless a batch is given, read-out: cAMP activity hGIPr (EC50)
# T7 sequence (P43220 24-463): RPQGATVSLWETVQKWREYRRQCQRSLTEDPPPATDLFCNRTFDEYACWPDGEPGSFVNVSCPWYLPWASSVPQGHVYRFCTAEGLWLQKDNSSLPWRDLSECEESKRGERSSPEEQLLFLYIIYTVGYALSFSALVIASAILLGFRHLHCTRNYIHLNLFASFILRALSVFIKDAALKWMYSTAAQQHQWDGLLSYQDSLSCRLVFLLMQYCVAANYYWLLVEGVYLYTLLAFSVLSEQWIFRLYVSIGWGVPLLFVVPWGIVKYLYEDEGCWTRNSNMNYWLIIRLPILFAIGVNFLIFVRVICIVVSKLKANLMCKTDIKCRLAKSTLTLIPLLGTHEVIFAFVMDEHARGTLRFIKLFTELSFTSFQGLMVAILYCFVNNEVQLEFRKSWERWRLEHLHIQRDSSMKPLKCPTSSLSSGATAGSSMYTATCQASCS
# T6 sequence (P47871 26-477): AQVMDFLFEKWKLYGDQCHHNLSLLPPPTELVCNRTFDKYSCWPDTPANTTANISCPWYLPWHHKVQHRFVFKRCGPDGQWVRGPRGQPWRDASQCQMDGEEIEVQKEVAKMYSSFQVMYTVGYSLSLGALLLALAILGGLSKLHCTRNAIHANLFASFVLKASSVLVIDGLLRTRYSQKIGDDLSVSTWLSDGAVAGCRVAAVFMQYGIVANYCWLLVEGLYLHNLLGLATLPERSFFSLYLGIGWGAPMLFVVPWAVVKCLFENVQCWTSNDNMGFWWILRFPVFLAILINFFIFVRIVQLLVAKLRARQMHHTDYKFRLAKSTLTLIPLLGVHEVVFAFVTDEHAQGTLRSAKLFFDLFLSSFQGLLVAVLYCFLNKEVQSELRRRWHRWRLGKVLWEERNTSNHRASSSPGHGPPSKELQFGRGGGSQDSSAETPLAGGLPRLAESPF
Molecule,"EC50 [1, 8] [nM]","EC50 [2, 9] [nM]","EC50 [3, 10] [nM]","EC50 [4, 11] [nM]","EC50 [5, 12] [nM]","EC50 [6, 13] [nM]","EC50 [7, 14] [nM]","EC50 [1, 15] [nM]","EC50 [2, 16] [nM]","EC50 [3, 17] [nM]","EC50 [4, 18] [nM]","EC50 [5, 19] [nM]","EC50 [6, 20] [nM]","EC50 [7, 21] [nM]"
B1,> 7430,0.55,1.3,0.13,2.4,21,0.083,–,–,–,–,–,–,–
B2,3100,3.6,0.073,0.014,0.35,13,3.5,–,–,–,–,–,–,–
B3,24,0.017,22,0.0079,72,330,0.0096,–,–,–,–,–,–,–
B4,130,0.0098,210,0.0063,110,820,0.0036,–,–,–,–,–,–,–
B5,–,–,–,–,–,–,–,> 1400,260,0.072,10,0.65,3.2,2.2
B6,–,–,–,–,–,–,–,> 420,2.3,11,0.03,63,280,0.019
